From article PMC2780292, “Structural Requirements for PACSIN/Syndapin Operation during Zebrafish Embryonic Notochord Development” (PLoS ONE, 2009)

Biological target: the molecule itself
Assay: crystal structure; selenomethionine SAD, 2.7 Å; crystals from 17% PEG 3350, 0.1 M disodium phosphate, hanging drop; two molecules in the asymmetric unit

B1: Drosophila Syndapin N-terminal EFC domain (domain or fragment, Drosophila melanogaster)
chain: SDSFWEPGNYKRTTKRIEDGYKLCNDLQQLIQERADIEKGYAKSLRTWSKKWGELIEKGPEYGTTEAAWKGVLTESERISDVHMKIKDNLCNDVNSQIKTWQKENYHHTLMQIKERKDLEDLFKKAQKPWAKLLAKVEKAKADYHSACKTERSATNQERNANADSSLSPDQVKKMHDRVQKTKDQVQKCREKYEQAIAEITKYNSVYIEDMTSVFEKCQTFEKTRLQFFKEILFNVHSCLDLTKVQSLPQIYEEFSHTINNADQQKDLKWWSNNHGINMAMNWPSFVEYT
modifications: selenomethionine-substituted
notes: the model holds residues 14-303 (chain A, 169-188 missing) and 14-298 (chain B); The fragment arose from full-length Syndapin during crystallization; Antiparallel homodimer; also called Syndapin EFC domain; Syndapin EFC dimer; source: crystals contained only the EFC domain
  stoichiometry N: 2
